Assay results: IntAct's records for PubMed 25910212

B1: Ribose-phosphate pyrophosphokinase 1 (Homo sapiens), P60891 (parent)
chain: MPNIKIFSGSSHQDLSQKIADRLGLELGKVVTKKFSNQETCVEIGESVRGEDVYIVQSGCGEINDNLMELLIMINACKIASASRVTAVIPCFPYARQDKKDKSRAPISAKLVANMLSVAGADHIITMDLHASQIQGFFDIPVDNLYAEPAVLKWIRENISEWRNCTIVSPDAGGAKRVTSIADRLNVDFALIHKERKKANEVDRMVLVGDVKDRVAILVDDMADTCGTICHAADKLLSAGATRVYAILTHGIFSGPAISRINNACFEAVVVTNTIPQEDKMKHCSKIQVIDISMILAEAIRRTHNGESVSYLFSHVPL
partner: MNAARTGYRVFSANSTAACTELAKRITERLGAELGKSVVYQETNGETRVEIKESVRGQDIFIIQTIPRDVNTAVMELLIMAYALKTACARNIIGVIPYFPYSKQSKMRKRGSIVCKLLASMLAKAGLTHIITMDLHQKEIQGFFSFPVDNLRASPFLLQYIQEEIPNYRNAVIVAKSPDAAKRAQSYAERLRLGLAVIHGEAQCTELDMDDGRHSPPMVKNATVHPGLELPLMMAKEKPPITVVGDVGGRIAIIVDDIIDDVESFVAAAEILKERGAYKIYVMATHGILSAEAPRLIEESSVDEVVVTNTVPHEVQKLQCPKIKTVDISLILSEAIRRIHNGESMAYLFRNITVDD
B2: Chorion-specific transcription factor GCMb (Homo sapiens), O75603 (parent)
chain: MPAAAVQEAVGVCSYGMQLSWDINDPQMPQELALFDQFREWPDGYVRFIYSSDEKKAQRHLSGWAMRNTNNHNGHILKKSCLGVVVCTQACTLPDGSRLQLRPAICDKARLKQQKKACPNCHSALELIPCRGHSGYPVTNFWRLDGNAIFFQAKGVHDHPRPESKSETEARRSAIKRQMASFYQPQKKRIRESEAEENQDSSGHFSNIPPLENPEDFDIVTETSFPIPGQPCPSFPKSDVYKATCDLATFQGDKMPPFQKYSSPRIYLPRPPCSYELANPGYTNSSPYPTLYKDSTSIPNDTDWVHLNTLQCNVNSYSSYERSFDFTNKQHGWKPALGKPSLVERTNHGQFQAMATRPYYNPELPCRYLTTPPPGAPALQTVITTTTKVSYQAYQPPAMKYSDSVREVKSLSSCNYAPEDTGMSVYPEPWGPPVTVTRAASPSGPPPMKIAGDCRAIRPTVAIPHEPVSSRTDEAETWDVCLSGLGSAVSYSDRVGPFFTYNNEDF
B3: H/ACA ribonucleoprotein complex subunit 3 (Homo sapiens), Q9NPE3 (parent)
chain: MFLQYYLNEQGDRVYTLKKFDPMGQQTCSAHPARFSPDDKYSRHRITIKKRFKVLMTQQPRPVL
partner: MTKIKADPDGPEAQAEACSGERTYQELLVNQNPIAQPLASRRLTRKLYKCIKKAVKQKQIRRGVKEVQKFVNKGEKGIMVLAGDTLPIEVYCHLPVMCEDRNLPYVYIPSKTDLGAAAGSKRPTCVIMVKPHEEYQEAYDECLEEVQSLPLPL
B4: DNA mismatch repair protein Mlh1 (Homo sapiens), P40692 (parent)
chain: MSFVAGVIRRLDETVVNRIAAGEVIQRPANAIKEMIENCLDAKSTSIQVIVKEGGLKLIQIQDNGTGIRKEDLDIVCERFTTSKLQSFEDLASISTYGFRGEALASISHVAHVTITTKTADGKCAYRASYSDGKLKAPPKPCAGNQGTQITVEDLFYNIATRRKALKNPSEEYGKILEVVGRYSVHNAGISFSVKKQGETVADVRTLPNASTVDNIRSIFGNAVSRELIEIGCEDKTLAFKMNGYISNANYSVKKCIFLLFINHRLVESTSLRKAIETVYAAYLPKNTHPFLYLSLEISPQNVDVNVHPTKHEVHFLHEESILERVQQHIESKLLGSNSSRMYFTQTLLPGLAGPSGEMVKSTTSLTSSSTSGSSDKVYAHQMVRTDSREQKLDAFLQPLSKPLSSQPQAIVTEDKTDISSGRARQQDEEMLELPAPAEVAAKNQSLEGDTTKGTSEMSEKRGPTSSNPRKRHREDSDVEMVEDDSRKEMTAACTPRRRIINLTSVLSLQEEINEQGHEVLREMLHNHSFVGCVNPQWALAQHQTKLYLLNTTKLSEELFYQILIYDFANFGVLRLSEPAPLFDLAMLALDSPESGWTEEDGPKEGLAEYIVEFLKKKAEMLADYFSLEIDEEGNLIGLPLLIDNYVPPLEGLPIFILRLATEVNWDEEKECFESLSKECAMFYSIRKQYISEESTLSGQQSEVPGSIPNSWKWTVEHIVYKALRSHILPPKHFTEDGNILQLANLPDLYKVFERC
partner: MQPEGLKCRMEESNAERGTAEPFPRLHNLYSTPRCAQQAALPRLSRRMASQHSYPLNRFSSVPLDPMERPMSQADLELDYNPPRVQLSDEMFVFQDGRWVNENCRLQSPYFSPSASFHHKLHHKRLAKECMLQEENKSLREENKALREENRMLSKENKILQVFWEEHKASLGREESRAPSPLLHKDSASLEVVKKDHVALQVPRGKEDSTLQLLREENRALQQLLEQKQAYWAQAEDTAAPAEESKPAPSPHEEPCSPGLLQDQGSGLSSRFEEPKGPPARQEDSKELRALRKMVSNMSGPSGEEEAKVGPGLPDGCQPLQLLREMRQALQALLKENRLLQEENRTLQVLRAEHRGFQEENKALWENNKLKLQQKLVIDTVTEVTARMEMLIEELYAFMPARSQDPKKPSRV
B5: EF-hand domain-containing protein 1 (Homo sapiens), Q5JVL4 (parent)
chain: MVSNPVHGLPFLPGTSFKDSTKTAFHRSQTLSYRNGYAIVRRPTVGIGGDRLQFNQLSQAELDELASKAPVLTYGQPKQAPPADFIPAHVAFDKKVLKFDAYFQEDVPMSTEEQYRIRQVNIYYYLEDDSMSVIEPVVENSGILQGKLIKRQRLAKNDRGDHYHWKDLNRGINITIYGKTFRVVDCDQFTQVFLESQGIELNPPEKMALDPYTELRKQPLRKYVTPSDFDQLKQFLTFDKQVLRFYAIWDDTDSMYGECRTYIIHYYLMDDTVEIREVHERNDGRDPFPLLMNRQRVPKVLVENAKNFPQCVLEISDQEVLEWYTAKDFIVGKSLTILGRTFFIYDCDPFTRRYYKEKFGITDLPRIDVSKREPPPVKQELPPYNGFGLVEDSAQNCFALIPKAPKKDVIKMLVNDNKVLRYLAVLESPIPEDKDRRFVFSYFLATDMISIFEPPVRNSGIIGGKYLGRTKVVKPYSTVDNPVYYGPSDFFIGAVIEVFGHRFIILDTDEYVLKYMESNAAQYSPEALASIQNHVRKREAPAPEAESKQTEKDPGVQELEALIDTIQKQLKDHSCKDNIREAFQIYDKEASGYVDRDMFFKICESLNVPVDDSLVKELIRMCSHGEGKINYYNFVRAFSN
partner: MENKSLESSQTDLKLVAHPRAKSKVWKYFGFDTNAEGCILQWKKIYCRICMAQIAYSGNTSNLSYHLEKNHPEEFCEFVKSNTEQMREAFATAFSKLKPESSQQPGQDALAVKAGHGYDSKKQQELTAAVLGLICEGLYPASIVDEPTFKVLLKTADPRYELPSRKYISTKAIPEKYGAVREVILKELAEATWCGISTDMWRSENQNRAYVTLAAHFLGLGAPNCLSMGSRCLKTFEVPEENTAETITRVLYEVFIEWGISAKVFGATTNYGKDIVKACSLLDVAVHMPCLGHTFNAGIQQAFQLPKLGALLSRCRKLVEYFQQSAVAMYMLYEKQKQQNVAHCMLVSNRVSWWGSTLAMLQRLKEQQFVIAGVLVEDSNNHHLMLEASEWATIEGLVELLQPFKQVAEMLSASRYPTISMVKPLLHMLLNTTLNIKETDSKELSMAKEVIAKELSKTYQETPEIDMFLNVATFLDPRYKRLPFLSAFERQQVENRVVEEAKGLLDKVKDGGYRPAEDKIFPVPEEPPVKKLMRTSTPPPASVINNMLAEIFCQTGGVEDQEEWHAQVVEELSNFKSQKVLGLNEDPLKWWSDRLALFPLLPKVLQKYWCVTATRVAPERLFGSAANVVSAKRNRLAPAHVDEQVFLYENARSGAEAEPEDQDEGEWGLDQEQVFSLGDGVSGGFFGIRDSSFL
B6: Emerin (Homo sapiens), P50402 (parent)
chain: MDNYADLSDTELTTLLRRYNIPHGPVVGSTRRLYEKKIFEYETQRRRLSPPSSSAASSYSFSDLNSTRGDADMYDLPKKEDALLYQSKGYNDDYYEESYFTTRTYGEPESAGPSRAVRQSVTSFPDADAFHHQVHDDDLLSSSEEECKDRERPMYGRDSAYQSITHYRPVSASRSSLDLSYYPTSSSTSFMSSSSSSSSWLTRRAIRPENRAPGAGLGQDRQVPLWGQLLLFLVFVIVLFFIYHFMQAEEGNPF

Variants of: B1
Settings: with kpra_human PRPSAP1, Q14558

Row | effect of a mutation on the interaction | Variant
1 | with no effect | D183H
2 | with no effect | D52H
3 | with no effect | N114S

Variants of: B2
Settings: with crx_human CRX

Row | effect of a mutation on the interaction | Variant
4 | with no effect | G63S
5 | with no effect | R47L
6 | with no effect | G203S

Variants of: B2
Settings: with RBPMS

Row | effect of a mutation on the interaction | Variant
7 | disrupting interaction strength | G63S
8 | with no effect | R47L
9 | with no effect | G203S

Variants of: B3
Settings: with nhp2_human NHP2, Q9NX24

Row | effect of a mutation on the interaction | Variant
10 | with no effect | R34W

Variants of: B4
Settings: with CBY2, Q8NA61-2

Row | effect of a mutation on the interaction | Variant
11 | disrupting interaction strength | S44F
12 | with no effect | R472I
13 | with no effect | G244D

Variants of: B5
Settings: with zbed1_human ZBED1, O96006

Row | effect of a mutation on the interaction | Variant
14 | disrupting interaction strength | A394S
15 | disrupting interaction strength | T508R
16 | disrupting interaction strength | R221H
17 | with no effect | M448T

Second part, the variant before the results:

Row | Variant | effect of a mutation on the interaction
18 | P77T | disrupting interaction strength
19 | R159W | with no effect

Variants of: B6
Settings: with vapb_human VAPB

Row | effect of a mutation on the interaction | Variant
20 | with no effect | P183H

Variants of: B6
Settings: with tri42_human TRIM42, Q8IWZ5
Chain of tri42_human TRIM42, Q8IWZ5 (Q8IWZ5 whole entry): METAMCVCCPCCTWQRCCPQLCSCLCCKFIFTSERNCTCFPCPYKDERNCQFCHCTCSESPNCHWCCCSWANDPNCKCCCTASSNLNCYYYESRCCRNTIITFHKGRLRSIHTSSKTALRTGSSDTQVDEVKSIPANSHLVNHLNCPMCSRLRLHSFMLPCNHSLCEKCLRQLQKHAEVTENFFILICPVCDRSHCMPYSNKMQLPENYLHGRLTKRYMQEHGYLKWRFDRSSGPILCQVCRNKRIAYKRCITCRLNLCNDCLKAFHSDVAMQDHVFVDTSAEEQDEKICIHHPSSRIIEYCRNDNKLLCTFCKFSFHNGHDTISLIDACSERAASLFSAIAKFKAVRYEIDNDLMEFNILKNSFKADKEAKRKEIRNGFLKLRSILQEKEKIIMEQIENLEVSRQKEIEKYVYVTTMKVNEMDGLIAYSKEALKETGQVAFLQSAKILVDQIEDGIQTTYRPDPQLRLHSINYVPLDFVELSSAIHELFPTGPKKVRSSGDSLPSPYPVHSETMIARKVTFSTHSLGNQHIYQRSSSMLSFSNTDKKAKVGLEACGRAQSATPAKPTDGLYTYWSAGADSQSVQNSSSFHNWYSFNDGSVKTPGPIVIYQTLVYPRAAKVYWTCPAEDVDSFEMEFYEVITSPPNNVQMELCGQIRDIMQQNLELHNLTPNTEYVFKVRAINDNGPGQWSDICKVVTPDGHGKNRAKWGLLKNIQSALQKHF

Row | effect of a mutation on the interaction | Variant
21 | with no effect | P183H

Variants of: B6
Settings: with stx4_human STX4, Q12846
Chain of stx4_human STX4, Q12846 (Q12846 whole entry): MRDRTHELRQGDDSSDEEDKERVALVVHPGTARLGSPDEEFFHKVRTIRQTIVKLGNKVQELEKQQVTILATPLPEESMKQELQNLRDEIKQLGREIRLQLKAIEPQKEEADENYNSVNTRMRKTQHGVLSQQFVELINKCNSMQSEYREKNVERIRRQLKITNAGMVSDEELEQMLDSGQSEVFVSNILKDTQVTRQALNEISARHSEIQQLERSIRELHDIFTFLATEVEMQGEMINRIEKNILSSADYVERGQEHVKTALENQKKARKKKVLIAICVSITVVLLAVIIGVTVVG

Row | effect of a mutation on the interaction | Variant
22 | with no effect | P183H

Variants of: B6
Settings: with meox2_human MEOX2, P50222
Chain of meox2_human MEOX2, P50222 (P50222 whole entry): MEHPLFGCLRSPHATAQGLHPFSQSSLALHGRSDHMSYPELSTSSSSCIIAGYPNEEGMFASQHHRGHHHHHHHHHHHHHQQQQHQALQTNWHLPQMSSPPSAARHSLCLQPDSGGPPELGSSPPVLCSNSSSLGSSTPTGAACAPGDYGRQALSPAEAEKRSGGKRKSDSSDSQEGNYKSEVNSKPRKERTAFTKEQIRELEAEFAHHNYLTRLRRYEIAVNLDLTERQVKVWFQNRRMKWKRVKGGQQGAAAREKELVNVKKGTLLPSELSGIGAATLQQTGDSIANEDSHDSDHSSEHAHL

Row | effect of a mutation on the interaction | Variant
23 | with no effect | P183H

Variants of: B6
Settings: with ccd33_human CCDC33, Q8N5R6
Chain of ccd33_human CCDC33, Q8N5R6 (Q8N5R6 whole entry): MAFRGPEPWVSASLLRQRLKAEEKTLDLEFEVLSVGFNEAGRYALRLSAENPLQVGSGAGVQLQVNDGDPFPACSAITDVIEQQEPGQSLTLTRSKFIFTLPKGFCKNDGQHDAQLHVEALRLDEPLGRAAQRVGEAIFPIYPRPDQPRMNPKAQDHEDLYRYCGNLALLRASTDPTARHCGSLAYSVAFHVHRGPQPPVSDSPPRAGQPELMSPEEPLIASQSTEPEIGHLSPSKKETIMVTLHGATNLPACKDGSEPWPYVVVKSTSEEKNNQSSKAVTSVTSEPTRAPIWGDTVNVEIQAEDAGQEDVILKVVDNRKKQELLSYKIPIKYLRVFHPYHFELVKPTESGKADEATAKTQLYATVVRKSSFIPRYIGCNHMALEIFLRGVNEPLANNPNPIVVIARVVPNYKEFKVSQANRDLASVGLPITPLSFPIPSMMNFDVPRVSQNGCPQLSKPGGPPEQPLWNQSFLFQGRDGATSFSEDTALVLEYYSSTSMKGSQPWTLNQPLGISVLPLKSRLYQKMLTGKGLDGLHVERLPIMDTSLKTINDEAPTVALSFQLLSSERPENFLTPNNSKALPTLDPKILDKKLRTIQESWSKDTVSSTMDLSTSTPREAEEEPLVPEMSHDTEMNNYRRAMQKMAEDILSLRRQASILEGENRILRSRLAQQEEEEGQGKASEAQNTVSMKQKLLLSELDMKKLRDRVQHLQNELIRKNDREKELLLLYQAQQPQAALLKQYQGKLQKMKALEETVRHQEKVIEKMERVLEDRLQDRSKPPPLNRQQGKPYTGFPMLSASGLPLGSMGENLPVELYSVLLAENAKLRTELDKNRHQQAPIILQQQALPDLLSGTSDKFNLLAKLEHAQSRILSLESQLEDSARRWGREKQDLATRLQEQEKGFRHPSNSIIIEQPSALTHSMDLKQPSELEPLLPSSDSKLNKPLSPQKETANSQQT

Row | effect of a mutation on the interaction | Variant
24 | with no effect | P183H
